Where “and” joins values, the source holds several entries; their conditions need not be identical. Identical values can stand only once.
Molecular target: SARS-CoV-2 S glycoprotein, prefusion S ectodomain (trimeric SARS-CoV-2 spike) (SARS-CoV-2 | bacteriophage T4) (UniProt P0DTC2)
Assay: SPR; Biacore T200; SARS-CoV-2 S (50 ug/ml) captured on Ni2+-loaded NTA chip; ACE2 (His-Tag removed) as analyte, 200 nM to 3.125 nM in triplicate, 50 uL/min, HBS P+ buffer; association 300 s, dissociation 600 s; 1:1 binding model

## WT soluble ACE2 treated with alpha2-3,6,8 sialidase (from UniProt Q9BYF1 18-626) (domain or fragment)
  decrease of KD against WT ACE2: 30 % lower

## soluble ACE2 expressed in the presence of 20 uM kifunensine (Kif ACE2) (from UniProt Q9BYF1 18-626) (domain or fragment)
  increase of KD against WT ACE2: 50%

## soluble recombinant ACE2 ectodomain, un-engineered (wild-type form, WT) (from UniProt Q9BYF1 18-626) (domain or fragment)
  Kd: 50 to 100 nM and 76 nM
